We go through 2 molecules from patent US20190276502A1 (OXFORD UNIVERSITY INNOVATION, published 2019).

In experiment [1] the target is T1, Recombinant Eap protein (C-terminal MAP domain and adjacent basic region of S. aureus Eap), His tag excised (Staphylococcus aureus Newman, UniProt A6QIG2 481-584).
T1 construct: The tag was removed with HRV 3C protease before coating on the plate; also called immobilized Eap; untagged Eap
T1 sequence: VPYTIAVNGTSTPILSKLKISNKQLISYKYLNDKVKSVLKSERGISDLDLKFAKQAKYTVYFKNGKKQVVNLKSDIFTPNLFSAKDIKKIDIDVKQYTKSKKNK
Briefly: plate interaction assay (EIA): untagged protein immobilised, His-tagged ligand titrated, anti-His alkaline phosphatase detection, Kd by non-linear regression.

The target in experiment [2] is T2, Recombinant EapH2 protein (MAP domain of S. aureus EapH2), His tag excised (Staphylococcus aureus Newman, UniProt A0A0H3K729 24-144).
T2 construct: The N-terminal His-tag was removed with HRV 3C protease; also called immobilized EapH2; untagged EapH2
T2 sequence: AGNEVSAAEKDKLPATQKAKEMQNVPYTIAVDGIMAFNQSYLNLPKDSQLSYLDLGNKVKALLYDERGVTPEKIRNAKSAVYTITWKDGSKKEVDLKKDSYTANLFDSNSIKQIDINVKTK
Described as above.

Experiment [3] concerns the target T3, Recombinant His-tagged EapH2 protein (MAP domain of S. aureus EapH2) (Staphylococcus aureus Newman, UniProt A0A0H3K729 24-144).
T3 construct: Made in E. coli and used as the soluble His-tagged ligand; not shown: N-terminal His-tag and 3C protease site from vector pOPIN-F
T3 sequence: T2 sequence
The experiment can be described thus: plate interaction assay (EIA): untagged protein immobilised, His-tagged ligand titrated, anti-His alkaline phosphatase detection.

B1: Recombinant His-tagged Eap protein (C-terminal MAP domain and adjacent basic region of S. aureus Eap) (other)
chain: T1 sequence
notes: not shown: N-terminal His-tag and 3C protease site from vector pOPIN-F
For the molecule B1, the values for the equilibrium dissociation constant (Kd) in experiment [1] and in experiment [2] were 80 nM and 82 nM, respectively.

B2: Recombinant EapH1 protein (MAP domain of S. aureus EapH1), His tag excised (other)
chain: PSHEASADSNNGYKEMTVDGYHTVPYTISVDGITALHRTYFIFPENKNVLYQEIDSKVKNELASQRGVTTEKINNAQTATYTLTLNDGNKKVVNLKKNDDAKNSIDPSTIKQIQIVVK
notes: The N-terminal His-tag was removed with HRV 3C protease; also called immobilized EapH1; untagged EapH1
Regarding B2, the binding result in experiment [3] is “binds”.
